T1: human Angiopoietin-2 (human, UniProt O15123 19-496)
T1 sequence: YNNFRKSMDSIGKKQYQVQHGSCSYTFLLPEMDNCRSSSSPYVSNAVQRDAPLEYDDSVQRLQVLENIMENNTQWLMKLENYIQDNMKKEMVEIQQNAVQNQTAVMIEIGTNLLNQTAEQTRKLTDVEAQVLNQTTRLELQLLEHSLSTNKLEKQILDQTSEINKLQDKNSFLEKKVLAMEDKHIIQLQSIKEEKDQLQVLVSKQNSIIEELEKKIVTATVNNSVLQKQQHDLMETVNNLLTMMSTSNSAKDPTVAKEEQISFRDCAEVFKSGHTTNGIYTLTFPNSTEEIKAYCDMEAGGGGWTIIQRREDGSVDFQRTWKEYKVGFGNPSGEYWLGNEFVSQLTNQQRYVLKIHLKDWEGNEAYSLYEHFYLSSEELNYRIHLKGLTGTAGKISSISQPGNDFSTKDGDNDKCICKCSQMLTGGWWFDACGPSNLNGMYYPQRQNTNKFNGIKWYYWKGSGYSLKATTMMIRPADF

T2: mouse Angiopoietin-2 (mouse, UniProt O35608 19-496)
T2 construct: Used as conditioned medium of transfectants; also called mAng-2; mouse Ang-2
T2 sequence: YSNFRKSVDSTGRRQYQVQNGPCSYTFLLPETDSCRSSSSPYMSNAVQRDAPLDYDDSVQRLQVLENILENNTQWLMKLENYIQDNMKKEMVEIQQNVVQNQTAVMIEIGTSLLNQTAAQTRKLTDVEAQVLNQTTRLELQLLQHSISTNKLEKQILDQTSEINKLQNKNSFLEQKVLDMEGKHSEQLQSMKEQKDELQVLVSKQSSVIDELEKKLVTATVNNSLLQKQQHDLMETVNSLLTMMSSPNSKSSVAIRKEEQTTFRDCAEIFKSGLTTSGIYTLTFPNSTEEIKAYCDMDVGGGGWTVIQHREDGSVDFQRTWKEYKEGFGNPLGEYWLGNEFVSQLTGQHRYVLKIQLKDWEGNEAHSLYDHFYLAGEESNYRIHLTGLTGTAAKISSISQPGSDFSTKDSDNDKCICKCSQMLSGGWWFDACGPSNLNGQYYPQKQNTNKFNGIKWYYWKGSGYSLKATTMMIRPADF


Tests used:
human Angiopoietin-2 [1] = target: T1, human Angiopoietin-2; assay: cell-based or functional assay
human Angiopoietin-2 [2] = target: T1, human Angiopoietin-2; assay: competition ELISA: binding of recombinant human Ang-2 to coated human Tie2/Fc, mAb 3.19.3 titrated, bound Ang-2 detected with polyclonal anti-Ang-2
Procedure: For this purpose, an ELISA plate was coated with 4 μg/ml of hTie2/Fc (R&D Systems, Inc.) at 100 μl/well, and the wells were blocked as routine at 4° C. overnight.
Each concentration of the mAb was tested in triplicate. […] OD650 was determined 30 min after the HRP substrate was added.

mouse Angiopoietin-2 = target: T2, mouse Angiopoietin-2; assay: ELISA on plates coated with conditioned medium of HEK293F/mouse Ang-2 transfectants, mAb titrated, detection with anti-human Fc-HRP
Procedure: The plates were incubated at 4° C. overnight, followed by washing four times using Phosphate Buffer Saline with a Skan Washer 300 station (SKATRON). The wells were blocked by 100 μl of ABX-block buffer (0.5% BSA, 0.1% Tween, 0.01% Thimerosal in PBS) for 1 hour. […] The mAbs and each of their dilutes were tested in duplicate. After washing twice, the bound mAbs were detected by goat anti-human Fc-HPPO-conjugated antibody (Caltag, Code H10507) at 1/1,000 dilution at room temperature for an hour. To set up the detecting chromagenic reaction, 100 μl of TMB substrate (TMB-microwell, BioFX, Cat. No. TMSK-1000-01) was added after washing the wells three times using PBS. The plates were incubated for 30 minutes before 650 stop solution (100 μl/well, BioFX, Cat. No. BSTP-0100-01) was added to terminate the reaction. The light absorbance at […] was determined by a Spectramax Plus reader.

human Angiopoietin-2 [3] = target: T1, human Angiopoietin-2; assay: competition ELISA: biotin-Ang-2 on coated Tie2/Fc
Procedure: 96-well Nunc Immplates™ were coated with 100 μl of recombinant human Tie2/Fc fusion protein (R&D Systems, Inc., Cat. No. 313-TI-100) at 4 μg/ml by incubating overnight at 4° C. The plates were washed four times using Phosphate Buffer Saline (PBS) with a Skan™ Washer 300 station (SKATRON). The wells were blocked by 100 μl of ABX-blocking buffer (0.5% BSA, 0.1% Tween, 0.01% Thimerosal in PBS) for 1 hour.
The plates were incubated at room temperature for two hours before the unbound molecules were washed off. […] After washing twice, the bound Streptavidin was detected by HRP substrate (R&D Systems, Cat. No. DY998). The plates were incubated for 30 minutes before 450 stop solution (100 μl/well, BioFX, Cat# BSTP-0100-01) was added to terminate the reaction. The light absorbance at 450 nm was determined by a Spectramax Plus reader.
Each concentration of the mAb was tested in duplicate. The concentration-response relationship was found by curve fitting using Graphpad Prism™ graphic software (non-linear, Sigmoid curve). The maximal inhibition (efficacy) and IC₅₀ (potency) were calculated by the software.

human Angiopoietin-2 [4] = target: T1, human Angiopoietin-2; assay: inhibition of rhAng-2 binding to its receptor
human Angiopoietin-2 [5] = target: T1, human Angiopoietin-2; assay: Biacore; kd held constant (*)
Procedure: The label-free surface plasmon resonance (SPR), or Biacore, was utilized to measure the antibody affinity to the antigen. For this purpose, a high-density goat anti-human antibody surface over a CM5 Biacore chip was prepared using routine amine coupling. All the purified mAbs were diluted to approximately 8 μg/ml in HBS-P running buffer containing 100 μg/ml BSA and 10 mg/mL carboxymethyldextran. Each mAb was captured on a separate surface using a 42-second contact time, and a 5-minute wash for stabilization of the mAb baseline.
Data were fit globally to a 1:1 interaction model to determine the binding kinetics.

Row | EC50, inhibition of Ang-2-induced Tie2 phosphorylation (HEK293F/Tie2, ELISA) (human Angiopoietin-2 [1]) [mg/L] | IC50 (read off the curve) (human Angiopoietin-2 [2]) [mg/L] | EC50 (read off the curve) (mouse Angiopoietin-2) [mg/L] | EC50 (human Angiopoietin-2 [3]) [mg/L] | Efficacy (ratio of bound Ang-2 with mAb 30 µg/ml versus without) (human Angiopoietin-2 [3]) [ratio] | OD650 in inhibition assay (human Angiopoietin-2 [4]) [OD650] | koff (human Angiopoietin-2 [5]) [s⁻¹] | binding result (mouse Angiopoietin-2) | Binder
1 | 0.006 | ~0.8 | ~1 | 0.798 | 0.395 | 0.0633 | ≤ 1e-05 |  | mAb 3.19.3 (antibody, V domains shown, Human hybridoma IgG (XenoMouse); also called x3.19) VH: QVQLVESGGGVVQPGRSLRLSCAASGFTFTNYGMHWGRQAPGKGLEWVAVISHDGNNKYYVDSVKGRFTISRDNSKNTLYLQMNSLRAEDTAVYYCAREGIDFWSGLNWFDPWGQGTLVTVSS VL: EIVLTQSPGTLSLSPGERATLSCRASQSITGSYLAWYQQKPGQAPRLLICGASSWATGIPDRFSGSGSGTDFTLTISRLEPEDFAVYYCQQYSSSPITFGQGTRLEIKR
2 |  |  |  | 2.7 | 0.389 | 0.0821 | ≤ 1e-05 | no binding (tested: 100 µg/ml) | mAb 5.28.1 (antibody, V domains shown, Human hybridoma IgG (XenoMouse); also called x5.28) VH: EVQLVESGGIVVQPGGSLRLSCAASGFTFDDYTMHWVRQTPGKGLEWVSLISWDGGSTYYADSVKGRFTISRDNSKNSLYLQMNSLRTEDTALYYCAKDIDIAVAGTGFDHWGQGTLVTVSS VL: EIVMTQSPATLSVSPGERATLSCRASQSVTSNLAWYQQKPGQAPRLLIYGALIRATGIPARFSGSGSGTEFTLTISSLQSEDFAVYYCQQYNNWPFTFGPGTKVDIKR
